Reference: article PMC12251660, “The Structural Deciphering of the α3 Helix Within ZmHsfA2’S DNA-Binding Domain for the Recognition of Heat Shock Elements in Maize”
Residue numbers refer to the chain shown, from its start.

B1: ZmPAH1-HSE2 (dsDNA)
DNA 1: CAGCGTCACATGACGGGAATTTTCACGTCTTTTCAGCCCT
DNA 2: AGGGCTGAAAAGACGTGAAAATTCCCGTCATGTGACGCTG
B2: ZmPAH1-HSE1-HSE2M2 (dsDNA)
DNA 1: TCTTCGAATTGCATAGGAATTTTCGTTCGAACGCATTCTG
DNA 2: CAGAATGCGTTCGAACGAAAATTCCTATGCAATTCGAAGA
B3: ZmPAH1-HSE1-HSE2R16 (dsDNA)
DNA 1: TCTTCGAATTGCATAGGAAACTTCACGTCTTTTCAGCCCT
DNA 2: AGGGCTGAAAAGACGTGAAGTTTCCTATGCAATTCGAAGA
B4: ZmPAH1-HSE1 (dsDNA)
DNA 1: B2 DNA 1 with T20A, T21C
DNA 2: B2 DNA 2 with A20G, A21T
B5: ZmPAH1-HSE1-HSE2L16 (dsDNA)
DNA 1: CAGCGTCACATGACGGGAATTTTCGTTCGAACGCATTCTG
DNA 2: CAGAATGCGTTCGAACGAAAATTCCCGTCATGTGACGCTG

Target: ZmHsf17 (Zea mays, UniProt A0A5J6CYG6 1-373)
Test: EMSA; EMSA/Gel-Shift buffer (Beyotime GS009; composition, salt and pH not stated), 10 uL, 25 C 30 min; 6% native PAGE in 0.5x TBE at 4 C
Conditions: protein: recombinant; tags: 6xHis (stated C-terminal; pET-30a); chain copies: 3; label: biotin; blunt

ZmHsf17, sequence (A0A5J6CYG6 entry or part of it): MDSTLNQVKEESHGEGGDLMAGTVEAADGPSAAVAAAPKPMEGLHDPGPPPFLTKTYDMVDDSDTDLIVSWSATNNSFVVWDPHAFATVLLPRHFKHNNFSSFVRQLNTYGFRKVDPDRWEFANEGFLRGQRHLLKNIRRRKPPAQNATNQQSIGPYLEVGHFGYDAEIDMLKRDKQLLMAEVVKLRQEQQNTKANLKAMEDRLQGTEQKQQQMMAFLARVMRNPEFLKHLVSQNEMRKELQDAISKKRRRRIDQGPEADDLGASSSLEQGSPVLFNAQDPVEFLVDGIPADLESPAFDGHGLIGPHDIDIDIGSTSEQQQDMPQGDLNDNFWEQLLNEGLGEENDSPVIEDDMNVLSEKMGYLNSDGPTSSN

Question: Does B1 bind?
Answer: binds

Question: Does B2 bind?
Answer: no binding

Question: Does B3 bind?
Answer: binds

Question: Does B4 bind?
Answer: no binding

Question: Does B5 bind?
Answer: binds
